Positions count from the first letter of the chain named. Numbers in names are those of the source.

The target of assay [1] is T1, Recombinant Human DLL4 (R&D Systems Cat#1506-D4/CF) (human, UniProt Q9NR61 27-524).
T1 construct: bought recombinant protein; also called rHuman DLL4; delta-like protein 4
As to the kind of experiment: SPR.

Assay [2] concerns the target T1, Recombinant Human DLL4 (R&D Systems …). The assay is described as follows: affinity quoted with the Multispot ECL titration; method of the number not stated there.
For assay [3], the target named is T2, rHuman Erythropoietin R/Fc Chimera, CF (R&D Systems Cat#963-ER) (human, UniProt P19235 25-250).
T2 construct: Bought recombinant protein; also called EPO R; EPO R/Fc; Fc part of the bought chimera not given
T2 sequence (looked up): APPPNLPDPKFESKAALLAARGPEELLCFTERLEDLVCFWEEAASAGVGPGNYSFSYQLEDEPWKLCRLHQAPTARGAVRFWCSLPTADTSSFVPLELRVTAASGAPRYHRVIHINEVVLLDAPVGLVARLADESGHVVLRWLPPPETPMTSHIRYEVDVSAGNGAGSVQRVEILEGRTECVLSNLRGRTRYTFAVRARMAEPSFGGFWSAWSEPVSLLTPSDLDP
As to the kind of experiment: ECL multispot binding assay (MSD), antigen spotted on plate, 10 nM Fab.

The target of assay [4] is T3, rHuman HGF R/c-MET/Fc Chimera, CF (R&D Systems Cat#358-MT/CF) (human, UniProt P08581 25-932).
T3 construct: Bought recombinant protein; also called HGF R/Fc; hepatocyte growth factor receptor; Fc part of the bought chimera not given
Described as above.

The target in assay [5] is T4, rHuman EGF R/Fc Chimera, CF (R&D Systems Cat#344-ER) (human, UniProt P00533 25-645).
T4 construct: Bought recombinant protein; also called epidermal growth factor receptor; Fc part of the bought chimera not given
The description is as above.

Assay [6] addresses T5, rHuman P-Cadherin/Fc Chimera, CF (R&D Systems Cat#861-PC) (human, UniProt P22223 108-654).
T5 construct: Bought recombinant protein; Fc part of the bought chimera not given
The assay is described as above.

Assay [7] concerns the target T6, rHuman CD44/Fc Chimera, CF (R&D Systems Cat#3660-CD) (human, UniProt P16070 21-220).
T6 construct: Bought recombinant protein; Fc part of the bought chimera not given
The description is as above.

Assay [8] has as its target T7, rHuman Notch-1/Fc Chimera, CF (R&D Systems Cat#3647-TK) (human, UniProt P46531 19-526).
T7 construct: Bought recombinant protein; Fc part of the bought chimera not given
The description is as above.

Assay [9] concerns the target T8, rHuman ErbB2/Fc Chimera, CF (R&D Systems Cat#1129-ER) (human, UniProt P04626 23-652).
T8 construct: Bought recombinant protein; also called human epidermal growth factor 2 receptor; Fc part of the bought chimera not given
Described as above.

For assay [10], the target named is T9, Recombinant Human DLL4 (R&D Systems Cat#1506-D4/CF) (human, UniProt Q9NR61 27-524).
T9 construct: Bought recombinant protein; also called delta-like protein 4; rHuman DLL4
The description is as above.

Assay [11] has as its target T10, rHuman IGF-1 sR, CF (R&D Systems Cat#391-GR) (human, UniProt P08069 31-932).
T10 construct: also called insulin-like growth factor-1 soluble receptor
The description is as above.

The target in assay [12] is T11, rHuman P-Cadherin/Fc Chimera, CF (R&D Systems Cat#861-PC) (human, UniProt P22223 108-654).
T11 construct: Bought Fc chimera; Fc part of the bought chimera not given
The assay is described as follows: ECL Multispot (MSD), antigen spotted, Fab 5.00 (column head 'Fab [µM]'); blank 268.

Assay [13] has as its target T12, rHuman HGF R/c-MET/Fc Chimera, CF (R&D Systems Cat#358-MT/CF) (human, UniProt P08581 25-932).
T12 construct: Bought Fc chimera; also called HGF R/Fc; hepatocyte growth factor receptor; Fc part of the bought chimera not given
Described as above.

The target in assay [14] is T13, rHuman ErbB2/Fc Chimera, CF (R&D Systems Cat#1129-ER) (human, UniProt P04626 23-652).
T13 construct: Bought Fc chimera; also called human epidermal growth factor 2 receptor; Fc part of the bought chimera not given
Described as above.

The target in assay [15] is T14, Recombinant Human DLL4 (R&D Systems Cat#1506-D4/CF) (human, UniProt Q9NR61 27-524).
T14 construct: Bought recombinant protein; also called delta-like protein 4; rHuman DLL4
The assay is described as above.

For assay [16], the target named is T15, rHuman IGF-1 sR, CF (R&D Systems Cat#391-GR) (human, UniProt P08069 31-932).
T15 construct: Bought soluble receptor; also called insulin-like growth factor-1 soluble receptor
Described as above.

Assay [17] addresses T14, Recombinant Human DLL4 (R&D Systems …). The assay is described as follows: ECL Multispot (MSD), DLL4 spotted, 10 nM Fab.
The target of assay [18] is T11, rHuman P-Cadherin/Fc Chimera, CF (R&D …). As to the kind of experiment: ECL Multispot (MSD), antigen spotted, Fab 0.50 (column head 'Fab [µM]'); blank 206.
Assay [19] concerns the target T12, rHuman HGF R/c-MET/Fc Chimera, CF (R&D …). The assay is described as above.
Assay [20] concerns the target T13, rHuman ErbB2/Fc Chimera, CF (R&D …). The assay is described as above.
Assay [21] deals with T14, Recombinant Human DLL4 (R&D Systems …). Described as above.
Assay [22] concerns the target T15, rHuman IGF-1 sR, CF (R&D Systems …). The assay is described as above.
In assay [23] the target is T14, Recombinant Human DLL4 (R&D Systems …). As to the kind of experiment: ELISA, DLL4 coated, 100 nM Fab, absorbance at 450 nm minus noise.
The target of assay [24] is T11, rHuman P-Cadherin/Fc Chimera, CF (R&D …). As to the kind of experiment: ECL Multispot (MSD), antigen spotted, Fab 50.00 (column head 'Fab [µM]'); blank 223.
Assay [25] addresses T12, rHuman HGF R/c-MET/Fc Chimera, CF (R&D …). Described as above.
Assay [26] concerns the target T13, rHuman ErbB2/Fc Chimera, CF (R&D …). The assay is described as above.
Assay [27] has as its target T14, Recombinant Human DLL4 (R&D Systems …). Described as above.
Assay [28] concerns the target T15, rHuman IGF-1 sR, CF (R&D Systems …). Described as above.
Assay [29] addresses T11, rHuman P-Cadherin/Fc Chimera, CF (R&D …). The assay is described as follows: ECL Multispot (MSD), antigen spotted, Fab 500.00 (column head 'Fab [µM]'); blank 495.
The target of assay [30] is T12, rHuman HGF R/c-MET/Fc Chimera, CF (R&D …). Described as above.
In assay [31] the target is T13, rHuman ErbB2/Fc Chimera, CF (R&D …). The description is as above.
The target in assay [32] is T14, Recombinant Human DLL4 (R&D Systems …). Described as above.
Assay [33] addresses T15, rHuman IGF-1 sR, CF (R&D Systems …). The description is as above.

B1: Fab VH1-46_IGHD6-6*01_IGHJ1*01 S102A/S103P/S104F/H111F & L6_IGKJ1*01 (Fab, V domains shown)
VH: QVQLVQSGAEVKKPGASVKVSCKASGYTFTSYYMHWVRQAPGQGLEWMGIINPSGGSTSYAQKFQGRVTMTRDTSTSTVYMELSSLRSEDTAVYYCAREEYAPFSAEYFQFWGQGTLVTVSS
VL: not shown
notes: Fab; also called H:APFF & L:wt; APFF mutant
For B1, the “fold affinity against the parent Fab” value in assay [1] was 10 fold. In addition, the “apparent Kd (pooled screen)” value in assay [2] was found to be 70 nM.

B2: Fab VH1-46_IGHD6-6*01_IGHJ1*01 S102A/S103P/S104F/H111F S59A & L6_IGKJ1*01 (Fab, V domains shown)
VH: B1 VH with S59A
VL: not shown
notes: Tested as a Fab made in E. coli; also called APFF S59A
With B2, the ECL signal in assay [3] was determined as 382; in [4] it was 280; in assay [5], 358; in assay [6], 339; in assay [7], 346; in [8] it was 333. The ECL signal in assay [9] turned out to be 312; in assay [10] it was 4500; in [11], 273.

B3: Fab VH1-46_IGHD6-6*01_IGHJ1*01 S102A/S103P/S104F/H111F (APFF) & L6_IGKJ1*01 (Fab, V domains shown)
VH: B1 VH
VL: not shown
notes: Tested as Fab expressed in E. coli: heavy chain from plasmid A (CH1 with His6 and Flag tags), kappa light chain from plasmid C (CL kappa); also called H:APFF & L:wt
In the case of B3, the ECL signal amounted to 280 in assay [12]; 258 in assay [13]; 286 in assay [14]; 75800 in assay [15]; 323 in assay [16]; 201 in assay [18]. Further, the ECL signal in assay [19] was found to be 215; in assay [20] it was 222; in assay [21] it was 7540; in assay [22] it was 184; in assay [24] it was 453; in [25], 380. For the same molecule, the ECL signal in [26] was 503; in assay [27], 79300; in assay [28] it was 485; in assay [29], 785; in [30], 723; in assay [31] it was 712. Moreover, the ECL signal in [32] turned out to be 27200; in assay [33] it was 736. In addition, the “ECL Signal/Noise” value in [17] worked out at 202. In addition, the “ELISA (Signal-Noise)” value in assay [23] stood at 0.78.

Values taken from patent publication US20120316071A1 (published 2012).
